According to PMC4850456, “Phenylbutazone induces expression of MBNL1 and suppresses formation of MBNL1-CUG RNA foci in a mouse model of myotonic dystrophy”:

Assays:
GST-MBNL1 (1-260) = target: T1, GST-MBNL1 (1-260) (UniProt Q9NR56 1-260); assay: EMSA; no PBZ; 10 mM Tris-HCl pH 7.5, 50 mM KCl, 1 mM DTT, room temperature 30 min, 20 ul; 6 ug protein, RNA 2.5 pmol/ul; then PBZ 15 min at room temperature; conditions: protein: recombinant; tags: GST (N-terminal fusion); label: 5'-biotin
T1 sequence: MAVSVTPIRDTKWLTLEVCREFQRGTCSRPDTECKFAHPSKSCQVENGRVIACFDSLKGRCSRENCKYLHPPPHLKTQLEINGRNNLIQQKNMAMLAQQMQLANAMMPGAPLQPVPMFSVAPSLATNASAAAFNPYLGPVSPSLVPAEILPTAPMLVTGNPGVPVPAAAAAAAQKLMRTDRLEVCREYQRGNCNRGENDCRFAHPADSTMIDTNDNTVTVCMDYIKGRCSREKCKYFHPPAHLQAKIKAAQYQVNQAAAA

GST-PTBP1 = GST-PTBP1 (UniProt P26599 1-557); assay: as above; conditions: protein: recombinant; tags: GST (pGEX-6P-1); label: 5'-biotin
Chain of GST-PTBP1 (P26599 whole entry): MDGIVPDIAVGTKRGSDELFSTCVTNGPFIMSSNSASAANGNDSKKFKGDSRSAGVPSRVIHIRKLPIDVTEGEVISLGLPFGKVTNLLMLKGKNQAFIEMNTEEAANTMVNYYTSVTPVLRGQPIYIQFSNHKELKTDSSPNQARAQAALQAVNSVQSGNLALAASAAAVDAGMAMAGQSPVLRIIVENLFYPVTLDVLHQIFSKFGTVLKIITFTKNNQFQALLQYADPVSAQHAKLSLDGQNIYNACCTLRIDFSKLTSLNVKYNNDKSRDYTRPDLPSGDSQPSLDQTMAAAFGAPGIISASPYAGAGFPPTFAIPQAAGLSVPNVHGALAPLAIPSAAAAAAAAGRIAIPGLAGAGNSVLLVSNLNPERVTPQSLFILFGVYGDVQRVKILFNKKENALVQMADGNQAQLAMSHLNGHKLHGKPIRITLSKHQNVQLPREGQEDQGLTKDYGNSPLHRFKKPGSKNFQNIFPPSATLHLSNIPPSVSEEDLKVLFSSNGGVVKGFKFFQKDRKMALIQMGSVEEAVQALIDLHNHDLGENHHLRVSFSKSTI

GCCUGCUGCUGCUGCUGCUGCUGCUGCUGCUGGC (structured_RNA) [CUG repeat RNA probe]: binds (GST-MBNL1 (1-260)).

UUUCUCCUUUUCUGUGGGUGGACAGGGUGACAUGGUA (ssRNA) [CHRNA1 polypyrimidine tract RNA probe]: binds (GST-PTBP1).
